Reference: patent publication EP1602931A1, “SR-A antagonists” (Universiteit Leiden, priority 2004, dated 2005)
Read-outs that look alike come from different tables or passages of the source. No end group written: not given here.

T1: immobilized, biotinylated, synthetic, truncated SR-AI (Bos taurus, UniProt P21758)
T1 sequence (P21758 1-453): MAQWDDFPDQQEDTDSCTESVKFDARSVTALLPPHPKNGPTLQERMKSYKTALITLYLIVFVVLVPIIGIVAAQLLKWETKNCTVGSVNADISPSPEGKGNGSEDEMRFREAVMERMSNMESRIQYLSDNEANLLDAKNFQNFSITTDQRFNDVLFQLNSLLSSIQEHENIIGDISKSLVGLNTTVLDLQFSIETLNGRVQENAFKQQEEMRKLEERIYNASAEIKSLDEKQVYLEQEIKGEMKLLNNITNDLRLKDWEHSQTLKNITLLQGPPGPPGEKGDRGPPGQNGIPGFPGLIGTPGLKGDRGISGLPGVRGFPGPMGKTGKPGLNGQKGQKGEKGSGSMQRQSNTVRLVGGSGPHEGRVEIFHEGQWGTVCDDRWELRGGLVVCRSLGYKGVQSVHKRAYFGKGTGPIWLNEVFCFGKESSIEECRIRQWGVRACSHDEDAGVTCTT

T2: synthetic biotinylated bovine SR-AI (truncated, comprising the ligand binding pocket) (Bos taurus, UniProt P21758)
T2 sequence (P21758 272-343): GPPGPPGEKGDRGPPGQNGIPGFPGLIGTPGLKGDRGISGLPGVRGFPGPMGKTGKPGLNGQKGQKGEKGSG


Assays:
[1] = molecular target: T1, immobilized, biotinylated, synthetic, truncated SR-AI; test: Competition of selected phage pool binding to immobilized synthetic SR-AI; set-up: species or system bovine
Description: (§1) All peptides were synthesized on an automated peptide synthesizer (9050 Millipore, MA) using standard Fmoc solid-phase peptide synthesis. Crude peptides were purified on a preparative C8 RP-HPLC column (Altech, Deerfield, IL) using a JASCO PU-980 (Tokyo, Japan). Purified peptides were further characterized by LC-MS in Division of Analytical Biosciences, Leiden University. The purity of the peptide, as checked by MALDI-TOF mass spectrometry and RP-HPLC, was at least 70%. Lyophilized peptides were stored at -20°C under nitrogen until further use. Synthetic biotinylated bovine SR-AI was synthesized, purified and characterised as described by Suzuki et al. (Suzuki et al., 1999).
In analogy to the phage selection procedure, 10 µg/ml of streptavidin in coating buffer was incubated overnight at 4°C in a high-binding 96-well plate at 100 µl/well. Wells were washed 3x with assay buffer and incubated for 1 h at 37°C with blocking buffer. Next, wells were incubated for 2h at 37°C with 125 nM biotininylated SR-AI binding peptide (100 µl/well), washed 3x with binding buffer, after which the SR-AI ligands or synthetic SR-AI binding peptides (7, 9, 11, 13, 15 a. a.) were added and the solution (100 µl) was left to incubate for 2h at RT with the enriched phage pool (round 7) at 10^8 cfu. Wells were washed 10x with binding buffer, binding phage were eluted by incubation for 5 min at RT with 100 µl elution buffer, and neutralized with 50 µl neutralization buffer (1M Tris-HCI, pH 8.5). Residual phage binding was calculated from the output ratio.

[2] = molecular target: T2, synthetic biotinylated bovine SR-AI (truncated, comprising the ligand binding pocket); test: Competition of enriched phage pool binding to immobilized biotinylated synthetic SR-AI; details: displacement of enriched phage pool (round 7, 10^8 cfu) from streptavidin-immobilized biotinylated SR-AI peptide; 0-300 µm peptide; 2h at RT; calculated from displacement curves
Description: as §1
10 µg/ml of streptavidin in coating buffer (50 mM NaHC03, pH 9.6) was incubated overnight at 4°C in a high binding 96 well plate (Costar, Coming, UK) at 100 µl/well. Subsequently, wells were washed with assay buffer (20 mM HEPES, 150 mM NaCl, 1mM CaCl2, pH 7.4) and incubated for 1 hour at 37°C with blocking buffer (3% BSA in assay buffer). […]
In analogy to the phage selection procedure, 10 µg/ml of streptavidin in coating buffer was incubated overnight at 4°C in a high-binding 96-well plate at 100 µl/well. […] Residual phage binding was calculated from the output ratio.

[3] = molecular target: Synthetic biotinylated bovine SR-AI (synthetic, truncated SR-AI comprising the ligand binding pocket) (bovine) (UniProt P21758); test: competition of selective phage pool binding to immobilized biotinylated SR-AI by suc-HSA
[4] = molecular target: Synthetic biotinylated bovine SR-AI (synthetic, truncated SR-AI comprising the ligand binding pocket) (bovine) (UniProt P21758); test: competition of enriched phage pool binding to immobilized biotinylated SR-AI peptide by synthetic peptide
[5] = molecular target: Synthetic biotinylated bovine SR-AI (synthetic, truncated SR-AI comprising the ligand binding pocket) (bovine) (UniProt P21758); test: competition of enriched phage pool binding to immobilized biotinylated SR-AI; IC50 against that of poly I
[6] = molecular target: Synthetic biotinylated bovine SR-AI (synthetic, truncated SR-AI comprising the ligand binding pocket) (bovine) (UniProt P21758); test: competition of enriched phage pool binding to immobilized biotinylated SR-AI peptide by synthetic peptide; remark: listed apart in the source
[7] = synthetic peptides (0-300 µM) competing with binding of enriched phage pool (round 7) to biotinylated SR-AI peptide, calculated from displacement curves, three independent experiments

IC50 [1, 7] | IC50 [4] | Molecule | other results
72.3 µM | – | LERFLRCWSDAPA [LERFLRCWSDAPA] | –
29.1 µM | – | LSLERFLRCWSDAPA [PP1, LSLERFLRCWSDAPA] | IC50 [1]: 28.3 µM
80.9 µM | – | RFLRCWSDAPA [RFLRCWSDAPA] | –
– | 217 µM | CWSDAPA [PP1-7 (CWSDAPA)] | –

Second part, the molecule before the results:

Molecule | IC50 [1, 7] | IC50 [4] | other results
LSLERFLRCWSDAPA [PP1] | – | – | IC50 [2]: 29 µM
Succinylated human serum albumin (from UniProt P02768 25-609) (ligand) | – | – | IC50 [3]: 66 µg/mL
RFLRCWSDAPA [PP1-11 (…)] | – | 80.9 µM | –
LSLERFLRCWSDAPA [PP1 (…), synthetic full-length peptide] | – | – | fold less potent than poly I [5]: 5 fold; IC50 [6]: 50 µg/mL
LERFLRCWSDAPA [PP1-13 (…)] | – | 72.3 µM | –
